Laboratory results as given in publication PMC5948177 (Science (New York, N.Y.), 2018).

Legend:
[1] = target: T1, a-subunit of the yeast ATP synthase Fo (yeast (strain W303-1A background), UniProt P00854 11-259); assay: cryo-EM structure
T1 sequence (looked up): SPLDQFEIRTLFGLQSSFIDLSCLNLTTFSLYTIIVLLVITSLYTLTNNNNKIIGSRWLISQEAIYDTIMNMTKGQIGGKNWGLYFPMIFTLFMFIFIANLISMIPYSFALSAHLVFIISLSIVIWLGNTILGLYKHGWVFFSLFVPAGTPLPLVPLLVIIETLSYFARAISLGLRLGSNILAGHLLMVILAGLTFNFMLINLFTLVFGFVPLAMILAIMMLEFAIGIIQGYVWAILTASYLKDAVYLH

cryo-EM structure = target: the molecule itself; assay: cryo-EM structure

binding result [1]: binds
B1: c-subunit of the yeast ATP synthase Fo (c10-ring) (natural protein, yeast (strain W303-1A background), UniProt P61829 1-76, looked up)
chain: MQLVLAAKYIGAGISTIGLLGAGIGIAIVFAALINGVSRNPSIKDTVFPMAILGFALSEATGLFCLMVSFLLLFGV
stoichiometry N (cryo-EM structure): 10
